Assay results as given in patent US20230012273A1 (Boehringer Ingelheim, published 2023).

Columns and labels:
[1] = biological target: T1, Human SIRPαV1 (NP_542970.1), Extracellular Domain + His-Tag (human, UniProt P78324 31-373); experiment: SPR, antibody captured on Protein A/G, ECD-His analyte, 1:1 fit
T1 construct: also called huSIRPαV1; hSIRPαV1; not shown: His-Tag
Experimental: (§1) The binding kinetics of anti-SIRPα antibodies to various SIRPα analytes are determined by surface plasmon resonance (SPR) using a Biacore 8K+(Cytiva). 1×HBS-EP+(Cytiva) is used as running buffer and for all the dilutions unless stated otherwise. The Series S CM5 sensorchip is activated with a 1:1 mixture of 0.1 M NHS (N-hydroxysuccinimide) and 0.4 M EDC (1-Ethyl-3-(3-dimethylaminopropyl) carbodiimide hydrochloride) for 420 seconds at a flow rate of 10 μl/min and immobilized with Protein A/G (Thermo Scientific, 10 μg/ml in 10 mM acetate pH 4.5) for 420 seconds at a flowrate of 10 μl/min resulting in approximately 3000 RU of Protein A/G on the surface. The sensorchip is then deactivated with 1 M ethanolamine HCl pH 8.5 for 420 seconds at a flowrate of 10 μl/min.
(§2) Antibodies (approximately 1 ug/ml) are captured on the Protein A/G surface for 60 seconds at a flowrate of 10 μl/min resulting in capture levels of approximately 240 RU. Dilutions of each SIRP protein (Extracellular Domain+His-Tag, with the concentrations as indicated) are injected as analytes over the captured antibody for 300 seconds of association at a flowrate of 30 μl/min, followed by a dissociation for 600 seconds.
(§3) The above procedures are used to measure binding properties of antibodies of the present disclosure. For each analyte used, the highest concentration was as indicated in Example 3 (see Table 36).

[2] = biological target: T2, Human SIRPαV2 (CAA71403.1), Extracellular Domain + His-Tag (human, UniProt P78324 31-373); experiment: as above
T2 construct: also called huSIRPαV2; hSIRPαV2; not shown: His-Tag
Experimental: as §1, §2, §3

[3] = biological target: T3, human SIRPαV1 extracellular domain + His-tag (NP_542970.1) (human, UniProt P78324 31-373); experiment: SPR, Ab captured, ECD-His analyte
T3 construct: also called hSIRPαV1; HuSIRPαV1
Experimental: (§4) The binding affinity of anti-SIRPα antibodies to the various SIRPα analytes is determined by surface plasmon resonance (SPR) using a ProteOn XPR36 (Bio-Rad). The running buffer for this experiment and all dilutions (except where stated) are done in 1×HBS-EP+. […] The sensorchip is deactivated with 1M ethanolamine HCl for 420 sec at a flowrate of 10 μl/min.
(§5) The analyte is injected over the captured antibody for 300 sec at a flowrate of 30 μl/min. The dissociation is done for 600 sec. Two-fold serial dilutions of each SIRP protein (Extracellular Domain+His-Tag) are injected as analyte with the highest concentrations indicated in table 36 below.

[4] = biological target: T4, human SIRPαV2 extracellular domain + His-tag (CAA71403.1) (human, UniProt P78324 31-373); experiment: SPR, Ab captured, ECD-His analyte
T4 construct: also called hSIRPαV2; HuSIRPαV2
Experimental: as §4, §5

[5] = biological target: T5, human SIRPγ extracellular domain + His-tag (NP_061026.2) (human, UniProt Q9P1W8 29-360); experiment: SPR, Ab captured, ECD-His analyte
T5 construct: also called hSIRPγ; HuSIRPγ
Experimental: as §4, §5

T5 sequence (Q9P1W8 29-360): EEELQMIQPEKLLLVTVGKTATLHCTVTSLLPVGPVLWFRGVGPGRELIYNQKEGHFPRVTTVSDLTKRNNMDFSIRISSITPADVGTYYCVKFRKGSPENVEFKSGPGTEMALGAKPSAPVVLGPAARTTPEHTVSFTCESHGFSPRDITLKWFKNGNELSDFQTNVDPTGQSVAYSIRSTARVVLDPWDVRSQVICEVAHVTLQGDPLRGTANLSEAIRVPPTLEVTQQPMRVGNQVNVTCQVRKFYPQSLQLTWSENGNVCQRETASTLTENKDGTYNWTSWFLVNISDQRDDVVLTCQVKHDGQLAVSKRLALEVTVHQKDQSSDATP
T4 sequence (P78324 other isoform, or with tags, fused parts or gaps): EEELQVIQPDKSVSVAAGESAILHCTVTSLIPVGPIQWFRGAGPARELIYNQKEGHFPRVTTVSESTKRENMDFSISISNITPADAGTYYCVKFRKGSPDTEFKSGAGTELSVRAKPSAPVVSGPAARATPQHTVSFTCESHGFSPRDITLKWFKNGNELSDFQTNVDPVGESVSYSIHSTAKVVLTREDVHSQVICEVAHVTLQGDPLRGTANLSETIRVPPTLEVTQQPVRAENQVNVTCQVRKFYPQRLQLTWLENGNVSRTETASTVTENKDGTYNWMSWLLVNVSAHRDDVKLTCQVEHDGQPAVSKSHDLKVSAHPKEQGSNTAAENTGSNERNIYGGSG
T3 sequence (P78324 other isoform, or with tags, fused parts or gaps): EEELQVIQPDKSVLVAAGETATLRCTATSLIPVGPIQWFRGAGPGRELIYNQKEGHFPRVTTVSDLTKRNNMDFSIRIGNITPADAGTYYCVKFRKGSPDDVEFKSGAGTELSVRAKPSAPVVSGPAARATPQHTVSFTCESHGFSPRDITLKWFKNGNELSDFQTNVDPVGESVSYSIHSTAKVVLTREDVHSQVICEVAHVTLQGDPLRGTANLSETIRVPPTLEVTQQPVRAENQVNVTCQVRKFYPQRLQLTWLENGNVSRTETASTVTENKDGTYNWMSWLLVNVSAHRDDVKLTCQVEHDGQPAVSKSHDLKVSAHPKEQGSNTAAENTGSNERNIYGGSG

Binder | Kd [1] [nM] | Kd [2] [nM] | Kd [3] [nM] | Kd [4] [nM] | binding result [5]
Antibody E (antibody, human IgG1, kappa, L234A L235A) heavy: not shown light: DIVMTQSPLSLPVTPGEPASISCKSSQSLLYSNGYNYLDWYLQRPGQSPQLLIYLGSNRASGVPDRFSGSGSGTDFTLKISRVEAEDVGVFYCMQALQTPLTFGGGTKVEIKRTVAAPSVFIFPPSDEQLKSGTASVVCLLNNFYPREAKVQWKVDNALQSGNSQESVTEQDSKDSTYSLSSTLTLSKADYEKHKVYACEVTHQGLSSPVTKSFNRGEC | 0.43 | 0.33 | – | – | –
Antibody E1 (antibody, human IgG1, kappa, L234A L235A, V domains shown) VH: QVQLQESGPGLVRPSETLSLTCTVSGGSIRNYYWSWIRQPPGKGLEWIGFIYYNGRTFYNPSLKSRVTISLDMSINQFSLKMTSVTAADTAVYYCARVRAYSGIGLDGTDVWGQGTTVTVSS VL: DIVMTQSPLSLPVTPGEPASISCKSSQSLLYSNGYAYLDWYLQRPGQSPQLLIYQGSNRASGVPDRFSGSGSGTDFTLKISRVEAEDVGVFYCMQALQTPLTFGGGTKVEIKR | – | – | 0.723 | 0.63 | no binding (tested: 1000 nM)
Antibody E3 (antibody, human IgG1, kappa, L234A L235A, V domains shown) VH: QVQLQESGPGLVRPSETLSLTCTVSGGSIRNYYWSWIRQPPGKGLEWIGFIYYNGRTFYNPSLKSRVTISLDMSKNQFSLKMTSVTAADTAVYYCARVRAYSGIGLDGTDVWGQGTTVTVSS VL: DIVMTQSPLSLPVTPGEPASISCKSSQSLLYSNGYAYLDWYLQRPGQSPQLLIYQGSNRASGVPDRFSGSGSGTDFTLKISRVEAEDVGVFYCMQALQTPLTFGGGTKVEIKR | – | – | 0.964 | 0.775 | no binding (tested: 1000 nM)

The remaining lines, values ahead:

Kd [1] [nM] | Kd [2] [nM] | Kd [3] [nM] | Kd [4] [nM] | binding result [5] | Binder
– | – | 1.23 | 1.2 | no binding (tested: 1000 nM) | Antibody E10 (antibody, human IgG1, kappa, L234A L235A, V domains shown) VH: QVQLQESGPGLVRPSETLSLTCTVSGGSIRNYYWSWIRQPPGKGLEWIGFIYYNGRTFYNPSLKSRVTISLDTSKNQFSLKMTSVTAADTAVYYCARVRAYSGIGLDGTDVWGQGTTVTVSS VL: DIVMTQSPLSLPVTPGEPASISCKSSQSLLYSNGYAYLDWYLQRPGQSPQLLIYLGSNRASGVPDRFSGSGSGTDFTLKISRVEAEDVGVYYCMQALQTPLTFGGGTKVEIKR
– | – | 2.15 | 1.93 | no binding (tested: 1000 nM) | Antibody E16 (antibody, human IgG1, kappa, L234A L235A, V domains shown) VH: QVQLQESGPGLVRPSETLSLTCTVSGGSIRNYYWSWIRQPPGKGLEWIGFIYYNGRTFYNPSLKSRVTISLDTSKNQFSLKMTSVTAADTAVYYCARVRAYSGIGLDGTDVWGQGTTVTVSS VL: DIVMTQSPLSLPVTPGEPASISCKSSQSLLYSNAYNYLDWYLQRPGQSPQLLIYLGSNRASGVPDRFSGSGSGTDFTLKISRVEAEDVGVYYCMQALQTPLTFGGGTKVEIKR
– | – | 0.988 | 0.824 | no binding (tested: 1000 nM) | Antibody E4 (antibody, human IgG1, kappa, L234A L235A, V domains shown) VH: QVQLQESGPGLVRPSETLSLTCTVSGGSIRNYYWSWIRQPPGKGLEWIGFIYYNGRTFYNPSLKSRVTISLDMSKNQFSLKMTSVTAADTAVYYCARVRAYSGIGLDGTDVWGQGTTVTVSS VL: DIVMTQSPLSLPVTPGEPASISCKSSQSLLYSNGYAYLDWYLQRPGQSPQLLIYLGSNRASGVPDRFSGSGSGTDFTLKISRVEAEDVGVYYCMQALQTPLTFGGGTKVEIKR
– | – | 1.41 | 0.568 | no binding (tested: 1000 nM) | Antibody E11 (antibody, human IgG1, kappa, L234A L235A, V domains shown) VH: QVQLQESGPGLVRPSETLSLTCTVSGGSIRNYYWSWIRQPPGKGLEWMGFIYDNGRTFYNPSLKSRVTISLDMSMNQFSLKMTSVTAADTAVYYCARVRAYSGIGLDGTDVWGQGTTVTVSS VL: DIVMTQSPLSLPVTPGEPASISCKSSQSLLYSNGYAYLDWYLQRPGQSPQLLIYLGSNRASGVPDRFSGSGSGTDFTLKISRVEAEDVGVYYCMQALQTPLTFGGGTKVEIKR
